2 molecules from paper PMC3814156 (Molecular Biology of the Cell, 2013) can be followed below.

The target in this experiment is ezrin FERM domain (residues 1–298), untagged (UniProt P15311 1-298). Description: pull-down.
Chain of ezrin FERM domain (residues 1–298), untagged (P15311 1-298): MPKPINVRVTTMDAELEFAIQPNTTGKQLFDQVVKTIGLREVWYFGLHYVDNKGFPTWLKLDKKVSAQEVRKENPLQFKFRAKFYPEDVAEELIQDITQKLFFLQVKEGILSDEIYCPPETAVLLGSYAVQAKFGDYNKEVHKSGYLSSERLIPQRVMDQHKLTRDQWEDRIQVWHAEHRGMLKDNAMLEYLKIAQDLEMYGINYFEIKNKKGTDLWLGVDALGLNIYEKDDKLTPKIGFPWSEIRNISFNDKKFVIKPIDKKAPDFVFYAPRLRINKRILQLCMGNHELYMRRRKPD

B1: SUMO-tagged EBP50 (natural protein, human, UniProt O14745 1-358, looked up)
chain: MSADAAAGAPLPRLCCLEKGPNGYGFHLHGEKGKLGQYIRLVEPGSPAEKAGLLAGDRLVEVNGENVEKETHQQVVSRIRAALNAVRLLVVDPETDEQLQKLGVQVREELLRAQEAPGQAEPPAAAEVQGAGNENEPREADKSHPEQRELRPRLCTMKKGPSGYGFNLHSDKSKPGQFIRSVDPDSPAEASGLRAQDRIVEVNGVCMEGKQHGDVVSAIRAGGDETKLLVVDRETDEFFKKCRVIPSQEHLNGPLPVPFTNGEIQKENSREALAEAALESPRPALVRSASSDTSEELNSQDSPPKQDSTAPSSTSSSDPILDFNISLAMAKERAHQKRSSKRAPQMDWSKKNELFSNL
On to B1, for which the “half-life of dissociation from ezrin FERM beads” value was ~10 min.

B2: SUMO-tagged E3KARP (natural protein, human, UniProt Q15599 1-337, looked up)
chain: MAAPEPLRPRLCRLVRGEQGYGFHLHGEKGRRGQFIRRVEPGSPAEAAALRAGDRLVEVNGVNVEGETHHQVVQRIKAVEGQTRLLVVDQETDEELRRRQLTCTEEMAQRGLPPAHDPWEPKPDWAHTGSHSSEAGKKDVSGPLRELRPRLCHLRKGPQGYGFNLHSDKSRPGQYIRSVDPGSPAARSGLRAQDRLIEVNGQNVEGLRHAEVVASIKAREDEARLLVVDPETDEHFKRLRVTPTEEHVEGPLPSPVTNGTSPAQLNGGSACSSRSDLPGSDKDTEDGSAWKQDPFQESGLHLSPTAAEAKEKARAMRVNKRAPQMDWNRKREIFSNF
As to B2, the “half-life of dissociation from ezrin FERM beads” value was ~16 min.
